# Measurements as given in IntAct's records for PubMed 20696938.
# B1: DNA topoisomerase 4 subunit A (Escherichia coli (strain K12)), P0AFI2 (parent)
# chain: MSDMAERLALHEFTENAYLNYSMYVIMDRALPFIGDGLKPVQRRIVYAMSELGLNASAKFKKSARTVGDVLGKYHPHGDSACYEAMVLMAQPFSYRYPLVDGQGNWGAPDDPKSFAAMRYTESRLSKYSELLLSELGQGTADWVPNFDGTLQEPKMLPARLPNILLNGTTGIAVGMATDIPPHNLREVAQAAIALIDQPKTTLDQLLDIVQGPDYPTEAEIITSRAEIRKIYENGRGSVRMRAVWKKEDGAVVISALPHQVSGARVLEQIAAQMRNKKLPMVDDLRDESDHENPTRLVIVPRSNRVDMDQVMNHLFATTDLEKSYRINLNMIGLDGRPAVKNLLEILSEWLVFRRDTVRRRLNYRLEKVLKRLHILEGLLVAFLNIDEVIEIIRNEDEPKPALMSRFGLTETQAEAILELKLRHLAKLEEMKIRGEQSELEKERDQLQGILASERKMNNLLKKELQADAQAYGDDRRSPLQEREEAKAMSEHDMLPSEPVTIVLSQMGWVRSAKGHDIDAPGLNYKAGDSFKAAVKGKSNQPVVFVDSTGRSYAIDPITLPSARGQGEPLTGKLTLPPGATVDHMLMESDDQKLLMASDAGYGFVCTFNDLVARNRAGKALITLPENAHVMPPVVIEDASDMLLAITQAGRMLMFPVSDLPQLSKGKGNKIINIPSAEAARGEDGLAQLYVLPPQSTLTIHVGKRKIKLRPEELQKVTGERGRRGTLMRGLQRIDRVEIDSPRRASSGDSEE
# partner: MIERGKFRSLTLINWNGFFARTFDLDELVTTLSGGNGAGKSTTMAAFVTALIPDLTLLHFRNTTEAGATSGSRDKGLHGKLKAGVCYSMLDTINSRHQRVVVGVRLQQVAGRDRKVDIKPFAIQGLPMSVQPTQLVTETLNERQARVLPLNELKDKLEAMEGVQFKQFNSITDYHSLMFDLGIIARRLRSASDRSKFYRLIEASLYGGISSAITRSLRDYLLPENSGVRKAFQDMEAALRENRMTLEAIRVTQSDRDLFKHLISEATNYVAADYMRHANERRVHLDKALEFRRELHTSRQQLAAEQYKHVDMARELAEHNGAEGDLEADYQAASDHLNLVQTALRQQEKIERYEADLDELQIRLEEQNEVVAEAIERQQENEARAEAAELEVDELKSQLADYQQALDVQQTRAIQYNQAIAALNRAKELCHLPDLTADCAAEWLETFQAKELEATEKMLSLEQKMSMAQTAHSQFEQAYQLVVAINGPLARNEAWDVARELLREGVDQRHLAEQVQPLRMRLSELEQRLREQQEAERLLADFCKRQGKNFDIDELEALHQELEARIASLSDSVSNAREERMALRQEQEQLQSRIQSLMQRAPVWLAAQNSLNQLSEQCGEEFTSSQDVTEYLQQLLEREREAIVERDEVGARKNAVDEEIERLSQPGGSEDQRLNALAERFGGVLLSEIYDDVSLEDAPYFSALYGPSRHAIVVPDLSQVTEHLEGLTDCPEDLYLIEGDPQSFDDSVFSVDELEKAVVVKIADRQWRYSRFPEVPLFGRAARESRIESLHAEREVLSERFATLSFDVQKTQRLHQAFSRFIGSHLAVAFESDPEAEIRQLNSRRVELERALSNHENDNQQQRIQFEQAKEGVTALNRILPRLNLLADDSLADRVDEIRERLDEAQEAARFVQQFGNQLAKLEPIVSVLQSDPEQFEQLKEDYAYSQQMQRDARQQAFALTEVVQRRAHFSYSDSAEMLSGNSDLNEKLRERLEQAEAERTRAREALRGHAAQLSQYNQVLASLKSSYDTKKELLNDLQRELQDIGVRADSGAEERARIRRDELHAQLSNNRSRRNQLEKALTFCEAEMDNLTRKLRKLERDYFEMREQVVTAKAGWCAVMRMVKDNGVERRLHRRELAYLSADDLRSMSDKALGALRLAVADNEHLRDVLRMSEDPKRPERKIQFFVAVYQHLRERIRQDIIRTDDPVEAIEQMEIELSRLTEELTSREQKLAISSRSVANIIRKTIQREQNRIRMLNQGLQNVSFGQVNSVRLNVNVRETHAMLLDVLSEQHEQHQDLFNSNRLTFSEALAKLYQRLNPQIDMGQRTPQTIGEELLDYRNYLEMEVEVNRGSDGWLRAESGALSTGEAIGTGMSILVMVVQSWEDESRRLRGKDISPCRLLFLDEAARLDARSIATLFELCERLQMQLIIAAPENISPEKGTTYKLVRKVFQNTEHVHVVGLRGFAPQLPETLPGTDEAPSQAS
# Variants of: B1
# Settings: with mukb_ecoli mukB
row,Variant,effect of a mutation on the interaction
1,R705E;R729A,disrupting interaction
2,R729A,disrupting interaction
3,R705E,disrupting interaction
